Results published in paper doi:10.1101/2020.08.17.253781.

Biological target: GST-LOV2GIV (L) (Avena sativa | not stated)
Assay: pull-down

Chain of His-Gαi3 (P08753 whole entry): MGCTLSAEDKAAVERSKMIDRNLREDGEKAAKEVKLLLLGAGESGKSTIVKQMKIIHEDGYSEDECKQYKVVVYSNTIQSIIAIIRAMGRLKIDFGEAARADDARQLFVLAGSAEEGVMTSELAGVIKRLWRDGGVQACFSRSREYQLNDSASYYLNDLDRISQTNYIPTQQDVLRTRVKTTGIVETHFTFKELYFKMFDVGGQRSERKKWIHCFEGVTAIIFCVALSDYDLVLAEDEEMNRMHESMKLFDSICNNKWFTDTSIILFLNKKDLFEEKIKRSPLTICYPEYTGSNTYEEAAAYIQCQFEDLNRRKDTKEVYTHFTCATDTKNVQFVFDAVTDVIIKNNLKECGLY

fold binding, lit over dark conformation of LOV2GIV: 3 fold
Substance: His-Gαi3 (from UniProt P08753 1-354) (natural protein)
